Data published in paper PMC6163214, “Etoposide-Induced Apoptosis in Cancer Cells Can Be Reinforced by an Uncoupled Link between Hsp70 and Caspase-3” (International Journal of Molecular Sciences, 2018).
One block for each compound: values may come before it.

Legend:
Hsp70 = target: T1, Hsp70 (Homo sapiens, UniProt P0DMV8); assay: microscale thermophoresis with NT-647-labeled purified Hsp70; supported by DARTS and substrate-binding assay
T1 construct: gene HSPA1A

[1] = target: Caspase-3 (human (endogenous in U-937)) (UniProt P42574); assay: co-IP; as a4, but biotinylated Hsp70 pretreated with 32 µM BT44
Sequence of Caspase-3 (human (endogenous in U-937)) (P42574 whole entry): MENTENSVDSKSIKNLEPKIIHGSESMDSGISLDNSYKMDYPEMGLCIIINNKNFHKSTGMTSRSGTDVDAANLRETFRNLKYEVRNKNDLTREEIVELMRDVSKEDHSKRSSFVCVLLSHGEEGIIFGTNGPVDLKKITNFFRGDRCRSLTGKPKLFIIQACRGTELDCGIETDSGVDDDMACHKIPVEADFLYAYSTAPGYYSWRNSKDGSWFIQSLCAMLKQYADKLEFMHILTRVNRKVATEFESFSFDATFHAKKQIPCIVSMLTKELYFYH

[2] = target: Caspase-3 (human (endogenous in U-937)) (UniProt P42574); assay: ELISA; same competitive protein-protein interaction assay, read as competition: cellular Hsp70 of the lysate (raised by heat shock or hsp70 transfection) holds Caspase-3 of the lysate away from the immobilised pure Hsp70

Sequence of Cellular Hsp70 of U-937 cells (P0DMV8 whole entry): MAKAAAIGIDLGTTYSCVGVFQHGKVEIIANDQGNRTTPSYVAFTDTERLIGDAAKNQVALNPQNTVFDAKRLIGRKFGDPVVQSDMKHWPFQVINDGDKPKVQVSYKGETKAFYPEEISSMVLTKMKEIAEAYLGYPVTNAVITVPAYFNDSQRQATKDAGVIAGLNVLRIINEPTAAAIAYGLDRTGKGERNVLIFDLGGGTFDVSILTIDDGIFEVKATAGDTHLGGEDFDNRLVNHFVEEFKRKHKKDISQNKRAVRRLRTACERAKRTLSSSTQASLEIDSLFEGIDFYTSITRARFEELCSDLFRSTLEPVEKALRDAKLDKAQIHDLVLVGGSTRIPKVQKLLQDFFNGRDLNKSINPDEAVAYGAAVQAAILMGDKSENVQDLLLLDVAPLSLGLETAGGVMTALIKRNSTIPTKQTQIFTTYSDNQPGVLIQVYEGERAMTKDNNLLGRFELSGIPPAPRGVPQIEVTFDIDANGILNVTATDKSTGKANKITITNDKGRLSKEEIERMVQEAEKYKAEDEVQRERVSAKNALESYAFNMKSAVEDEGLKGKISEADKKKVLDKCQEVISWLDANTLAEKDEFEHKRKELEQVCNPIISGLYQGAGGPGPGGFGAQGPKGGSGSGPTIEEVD
T1 sequence (P0DMV8 2-641): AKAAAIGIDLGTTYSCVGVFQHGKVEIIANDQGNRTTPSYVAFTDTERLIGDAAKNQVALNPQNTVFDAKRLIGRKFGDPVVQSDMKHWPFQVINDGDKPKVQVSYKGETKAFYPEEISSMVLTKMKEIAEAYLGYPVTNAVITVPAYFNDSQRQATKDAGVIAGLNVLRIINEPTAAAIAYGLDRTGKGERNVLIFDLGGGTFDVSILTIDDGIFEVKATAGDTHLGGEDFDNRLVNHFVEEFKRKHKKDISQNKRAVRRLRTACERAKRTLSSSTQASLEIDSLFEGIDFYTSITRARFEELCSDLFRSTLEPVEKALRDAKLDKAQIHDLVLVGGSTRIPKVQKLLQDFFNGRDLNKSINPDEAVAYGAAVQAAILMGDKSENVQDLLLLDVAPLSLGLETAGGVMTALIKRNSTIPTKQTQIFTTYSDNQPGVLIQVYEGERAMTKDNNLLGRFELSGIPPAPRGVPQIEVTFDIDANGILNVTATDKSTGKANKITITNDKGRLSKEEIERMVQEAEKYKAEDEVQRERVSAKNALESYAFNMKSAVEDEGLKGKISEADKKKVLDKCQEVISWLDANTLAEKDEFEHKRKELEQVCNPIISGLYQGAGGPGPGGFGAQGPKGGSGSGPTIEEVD
Sequence of Biotinylated Hsp70 (P0DMV8 whole entry): as the sequence (P0DMV8 whole entry) above

Kd (Hsp70): 5.2 ± 0.3 µM
Compound: CCc1cc(-c2n[nH]cc2-c2ccc3c(c2)OCO3)c(O)cc1OC1OC(CO)C(O)C(O)C1O (stereo not drawn) [BT44, 2-[4-(4-Benzo[1,3]dioxol-5-yl-1H-pyrazol-3-yl)-2-ethyl-5-hydroxy-phenoxy]-6-hydroxymethyl-tetrahydro-pyran-3,4,5-triol]

fold lower amount bound with BT44 than without BT44 [1]: 10 fold
Compound: Biotinylated Hsp70 (from UniProt P0DMV8 1-641) (natural protein)

percent decrease of Caspase-3 bound to immobilized Hsp70 (against U-937wt cells treated with etoposide alone) [2]: 35 to 50%
Compound: Cellular Hsp70 of U-937 cells (from UniProt P0DMV8 1-641) (natural protein)
